{"source": "patent US7429385", "target": "MOLT4 receptor (putative E2 receptor on human lymphoma T-cells, MOLT-4 cells) (human)", "assay": "cytofluorimetric binding assay on MOLT-4 cells", "data": [{"substance": "intracellularly produced truncated HCV E2 terminating at amino acid 715 (E2715), from CHO cell lysate (from UniProt P26664 384-715)", "values": [{"measurement": "fold more efficient binding to MOLT-4 cells than secreted E2", "value": 30, "unit": "fold"}]}]}
